Assay results published in the domain aggregation screens of Martell et al. (2025).

Experiment: soluble fraction after stress (log2 fold change); higher = more stays soluble; pooled small domains, quantitative proteomics
Conditions: stress: pH 4
Outline: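 Small protein domains from pooled custom libraries were exposed to pH 4, then quantified with high-throughput quantitative proteomics. The fold change in how much of each domain remains soluble is read as aggregation propensity. It is given as log2, with higher values meaning more stayed soluble.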

| Sequence | soluble fraction (log2) |
| --- | --- |
| HMSLQNTMANFAGGVLVLFLKPFKAGDYIVTKDGEGTVASIGLVYTTLLTIENKRIVIPNSSISNSPITN | -0.673 |
| HMKHTQTDEGELLSTLRTLFPNSSSSSLRKMLTQGRILVNQEVVHRAKHALQAGDEIEVLARQ | 0.0825 |
| HMAIDYYQTLINLGYKLQDRGDYWQTSAIHRGGDNPTALQIYKNTGVWKDYVSGGGFKPFKALVEKSD | -0.35 |
| HMTLAAATESREYLADLARRLDAADHGDKTRIKAEAAGLLGWSMATLHARLARDVGWTSGRK | -0.166 |
| HMDSRVRHAVLTTLLGKRIVDDLVEKGELPGTPLVLATAPGLDRDLEQLIAQRVVTALLTTV | 0.192 |
| HMVKETNYSFFLKQIDAGTVEQVQIEDTEIKFKVSTADGKEQVYSTVRVEDPDLVDRLYSKGNIDFTGN | -1.3 |
| HMKKVIKIEENVSLQKLAALMSLKVTDVLMRLLSMGMSGVNINSTIDADTAKILASEFGWTVED | -0.669 |
| HMDIKDRSGVTIDESNEAQQESIIRESWAEQKISGNVDNYIAYLKANGMLLETAKIELAALQEKDASLRE | -0.78 |
| HMKPEQIELTFSGTTAMRLDKFLAENQPGLSRAKLQAIISSGSVEVNGKVITKQAFKLDPGDLVKALIPE | ≥ 0.43 |
| HMALDLNEDEKLLVELIEKAGGTAGLGELKEASGLSGKKWDKTTKNLSKEGLIKVEKNESGLWVHLT | -0.423 |
| HMRNEFEAHSDGTRIQLNDRSKATFSVYDVQGRLIHSFQDFSGSSFNIEPKNQLLIITRETAEGVSVKKLV | -0.322 |
| HMVAGHLQEKKGYFYMVLTYRDHEGKRKSKWLPTGLTIKGNKKRAQDLLQDARKNFVPDIPT | ≥ 0.43 |
| HMEEIIPIRFLRHRVKRRETIFGLTQKYNITEDQLKRYNTRLYSEALERKMVLQIPVFPEVDED | -0.667 |
| HMIPENKRVLISLTYIYGIGKKISQDILEKANIDSSIKTSQLTDDDVARIRQLIENDYLVEGELRV | 0.00777 |
| HMKNLADNIVALRKKHGLSQEQFAEKIDVTRQAVSNWERRIATPDVETIDLIAKLFDTDLTALVNG | -0.129 |
| HMEPQSRTAYRLIEAMIVTHELPPGSRISEASLSAKLGIGRTPIREALQRLSFEGTVKIVPRSGAFVSEI | 0.183 |
| HMGSVNDNVQKLTSQIGETTETGDTITPEDVELYKKMVDPLSTMAQKLEAAEILKLKGIIGSNGIIV | -0.0476 |
| HMSFMFEISVIRSQYNMQDPESKTGFYNAIAKKLLEFPEKLERDNYTEAVAREYMIPETDLKNLVNSMGG | -1.66 |
| HMEAYSAEAVRFRIKAMIESETVDDVMSDDKIVERLLADGVDIARRTVAKYREAMNIPSSVKRRRKLKGM | -0.962 |
| HMDYYSILGVDRNATGEDIKKAFKKKAMKYHPDRNPDNKESERKFKEAKEAYDTLSNPQKKSMYDQFGT | 0.141 |
| HMSTISPNAFNFLQQNLNKFSDDAEGKMIKDILSKTTYDEYVKNEKSKTDFNSLLRRQTTTGDDNLNRYIN | 0.072 |
| HMRMSQLSRLISILTLLKSKRLLTATELAEKYDVSIRTVYRDIRKLEEAGIPVYTIEGRGYSLMDNYT | -0.299 |
| HMVSFAEQASDWLAHFDRLGDVGPDTTLTDLTARDAEFSAWVNEGIHHRVAFLETLAAWHRTER | -0.0379 |
| HMLLTLPEDIITMVRQGTLSAGHARVLAGLESDEMKMTLARQTITNEWSVRQLENAVALMRKS | -0.858 |
| HMELLTNPLTGREVEVLTLMALGQTNHEIARQLYLATGTVKAHTSSIYRKLDVANRTEAVARARQLGIL | -0.448 |

| Sequence | soluble fraction (log2) |
| --- | --- |
| HMTGQHFDLEDTDGNLVYEIDSTVPLKTFYIYDAMHTEIFRMTKELLHALPTYRFYLYGEPYGVLKKQ | -0.52 |
| HMTPPAQQPHEGLPTDETATDAKTLVQKSRWWLEEEQRQREAGNTAYAERIRLALIQLLYRAERA | 0.0525 |
| HMPLLSPRQLDVLSLAAGGLSDAQIAGRLVLSESTVRVHFHHIIEKLGVTDRAGAIAWYEQSRS | -0.378 |
| HMPQQVFKREDLQKWGLTGQADSRKRREKLGQLLGIGYGNGKQLIHRLNMFQVDRATFEQAIKQINQEEDH | 0.00776 |
| HMSTMLPFVMRELVELVMKKKALPLGDALYYIYSSKLYKSLLDKSTKLWYSSTLSLYETLEKEKTEEKRRY | -0.802 |
| HMEFQVKVIVSSLNIRSGPGTSYDTLGTVTKGDIFTIVETNSDSTWGKMQSGGWISIKDAYVKK | -0.216 |
| HMKQEFEMGLPNGVGEQMLAHAIEKFDVKLEHSEFGPKLIGTYEELEKAKVFLYEAIEARLNQLE | -0.875 |
| HMSNVKVYPNPTSGKLTIDAENYKGVEVYDTSGRLIVKSELRTIDLEEQSKGLYLLKVNANGTTQEFKVFK | -0.977 |
| HMSVEVADITRAYYEGVGFEWWIRSVRLDPNELIVDNDDEGKLYRVPFEINGEEVTFGDPVEVKIRYE | -0.71 |
| HMSVLSEQIKEQLMEDIFHKKYKAGDRIVESALARELGVSQASVREALRSLIAMGFLENEPFKGITVR | 0.107 |
| HMELNFEGFYRFVRDELNVDLNAYKEKQLKRRIATVMKSSGALTLEDYSRLIANDEVIRNKFLDYITI | -0.894 |
| HMSVKLMEVKGASTVVSRQVREAVSIVFPTSSMRLDLVALKARIEGVDAVKRADVYLRNGILEIQIDER | -0.981 |
| HMDRSRAEIDLGHVETAIRTLAEGGMVQEYAIGGRSLKRYKMGELLQLKAELENEINMERRKEKMRQ | 0.184 |
| HMDKPGMRLNQFIAHSGISSRREADNLIKAGLVQVNGKIIVEMGFRVMPTDIVKFNNETIAS | 0.378 |
| HMKELTPEQLQHNWNNLRQFIDVNFSGDRLGGLNKMYDYFEERMMFAPASGKQHYHNAFAGGYVEHVMHV | 0.0505 |
| HMDVNMLVTGMLHKGEKSFVRVSFLRGKDWAEGIVPDAKIEKSQGFMEEEVARLEAYLLEQKSMIMEQA | -1.24 |
| HMPDAGQRRYLELVTALAGARSLTIDDLERRAIRFAEWGNGYSGRTARQFIDTLLQDRGVAEEL | -0.935 |
| HMNGEDVTDAIRLPQISQYASVVSAYPGVRAFLLEMQRDFARKGSVIMDGRDIGTVVLPEAEVKIFLT | 0.278 |
| HMSNLGLQIVRTLTDAGKGVVFITHKLKEALTIADRINVLRRGKVVGDADPKTASESQIAEMMVGRPVQL | 0.0653 |
| HMEITRDTVIQWLEAERRSQTWLSKQLGVSVQAVSNWLREKNPQTISASAQITIRALMEEDAAK | 0.00665 |
| HMVNVTEAIDLENGTGKLSGTFNHEPKSAEEIIFLLKIDTNKWKLSQYWNKQMGDHWRVSALISQI | -1.54 |
| HMSGTFIGGELVKPGEPLTPMQRAAITMGLQMGNTYSPEIMEKYNNAGGSPSKEEFENYQKNKS | 0.22 |
| HMKTFSFEILADTVKKQRKAKGMTQAELSEATGINRSMIGQMENMTFKPSIEQLEALSQALDFNVIDLYTE | -0.767 |
| HMAIIQSNNIFKSQKEIVDEILVELDIPKDKWNFFHMLISSGYKDEFDTNRIYEIIQTNYNMMDR | -0.693 |
| HMLGSGSKEQQLVILNNILERQVQAFNLQGGQEYPMVTLKNFYNTLSKMIENAGLKNVENYFVNPDVGKQM | -0.0872 |

| Sequence | soluble fraction (log2) |
| --- | --- |
| HMWPDDAIALPTRDGQDVGGAQERTMLAFASGAAGIRTVEEINPDGSITRLRTRYGWPTFETEGARTAAAE | -0.221 |
| HMSYPFSEDALKEKIREYLKHNRSINRKVLEAEFHIRKQTALNWLKKLEKSGFLIKEGSRNAPVYFLAE | 0.0835 |
| HMEQLIIQEELSGKRLDQLVSLLFPSLTRAHAQKLIKEGAVLVNEKPRKPAYAVMTGELLTVELPEPE | -0.755 |
| HMSLRVIEIFGTPQQMSARISLMDGSVTDVKVGQSIPGTSYKVASITGNGVWIQNGTAVSYTHL | 0.00817 |
| HMEELTDSELNNLYRELFIARSNASDGVGIIEQKTIKGITYRLSNDNNYLIKELGNKEYIYKNGVWEEYT | 0.0623 |
| HMTDKLIAYSVDGILNVITSEAQSVKVYAIDGRLVRILQLGEGRNEVSGLAKGIYIVDNRKVAV | 0.0217 |
| HMDDTVILPIQINGKRRAEISVPKAMPASEVEKLALANEDVLRFLAGQPIKKLIVVPGRIINVV | ≥ 0.43 |
| HMVVLPGEVVALKIIQTGSSKDQGVGYLEDGTMVVVDGAKNSIGKTIEIQISRSHQTVAGRMLFGIAMS | -0.0841 |
| HMVQIIQLQGTDKRLYELVAPLVMNPEILKQNYNYPFRTSEDFVWFVAVDKKKVIGFIPVEEKKKEYVI | -0.275 |
| HMLTTMSSQWKPSLDAIEILEKSGIAYSFIEDAIPEFVLYWRERGISHGAWNTKFVEHIRKQWAKFEAS | 0.21 |
| HMRSPLYVQIKQHILGDIRKGVWKPGEKLPTELDLAERFGVSVGTVRRAMGGLEDEGIISRREGSGTFVRT | 0.229 |
| HMGYVQLTAREKEVLQGLVDGASYKMIAAKLDIRFGTVHTHVKNIYEKLHVNSASEAVVKAIRQRL | -0.743 |
| HMRYWVKSETDFLIENRGKYSYQEFADMLGRSYAVVYDKMHQLKIDYTKEELEIFDEKHKAQMREKQQR | -0.665 |
| HMNEGETLYRLRAGDGRARLDKFLAAALPDISRTRFKGLIESGHVRVGGETITEPAYRVKSEAEVELTVPE | 0.0187 |
| HMNLQAYQSVLDKLNEEYGTTFRFPTEEELHEVGLTNTVDPRTATVSATEFEKYMRPIAERISQANL | -0.315 |
| HMNDENIIIEEIKYFIKSNQIKEQEKLPSERNLSELFTVSRFSLRKALRHLVDTGYLYVKDKSGYYYQGD | 0.00355 |
| HMRISMRDQVYEIIKNRILSREYSLGEPINIVHLSKELGISNTPIREALSQLETERLITINSNQKYHVT | -0.0135 |
| HMFIGFLHQLKEAGVPVSIREYLDFLSGLDKGITNLNTNSFYHFARASLVKDERHYDRFDRTFSEFFEGAL | -1.71 |
| HMTFFDDLLYQAKAAVDNDPSIKPSLHNRAIIEILYQQGVFNMKNAVEHVAELLEISKNTVYLHLRSVKG | -0.976 |
| HMQGPDPYAVLGIDRHADERAIKRAYRKLISEHHPDRLGDLPEDMRKRAESRASEINAAYDRIKEARGF | 0.13 |
| HMRRFEFSDGSSNKFWQITRDGTSLTVTFGKIGTAGQTQLKELATEAAAIAEHDKLVKEKTKKGYAEVG | -0.157 |
| HMLPPHMEVRAIMILDKRPMALMNIEGEGDGLIVSPGYRFGDGRGRVVSITQTKVVVLWAGTSMEL | -0.383 |
| HMINIDESIDESLSEDDAVLDLLERASASFTKAQEALLEGDLGRYQTLIEQADRLVAKALELLDEKN | -1.34 |
| HMQLLDIGSAVRIIREPYFGRLGTVVELPPELMEIESGTHARVLKAKLDDGTVAVVPRANVEIIVE | -1.34 |
| HMTTHERHEIIELLRQVGDPMRPKEISEALGKPSGAIRFLLSKLTEEGAIKKTGYGQYTYIP | -0.0635 |
